In patent US12269859B2, “Synthetic immune receptors and methods of use thereof” (Angeles Therapeutics, Inc., priority 2016, dated 2025):

System: target antigen-expressing cell line
Test: Jurkat NFAT-GFP assay, coculture with target cell lines expressing the respective target antigen (summary Table 10A)
Type: cell-based, human
Set-up: key: The signs +/−, +, 2+ etc. after the name of the cell lines indicate the relative degree of positivity on the Jurkat-NFAT-GFP assay as measured by the % GFP positive cells; +: relative degree of positivity on the Jurkat-NFAT-GFP assay as measured by the % GFP positive cells; 2+: relative degree of positivity on the Jurkat-NFAT-GFP assay as measured by the % GFP positive cells
Conditions: relative % GFP positive cells; for NFAT-GFP ASSAY Positive Cell lines: NALM6: SIR-expressing Jurkat-NFAT-GFP cells cocultured with NALM6; for NFAT-GFP ASSAY Positive Cell lines: RAJI: SIR-expressing Jurkat-NFAT-GFP cells cocultured with RAJI
Outline: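 Coculture of SIR-bearing Jurkat NFAT-GFP reporters with target cells, ~1:2 E:T, ~4–18 h. FACS quantified % GFP+ cells, ranked semi-quantitatively against parental Jurkat-NFAT-GFP.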

Row | Molecule | NFAT-GFP ASSAY Positive Cell lines: NALM6 | NFAT-GFP ASSAY Positive Cell lines: RAJI | further results
1 | 010417-I04 (protein) MALPVTALLLPLALLLHAARPLEGKPIPNPLLGLDSTGSGEDLKNVFPPEVAVFEPSKAEIAHTQKATLVCLATGFYPDHVELSWWVNGKEVHSGVCTDPQPLKEQPALNDSRYCLSSRLRVSATFWQNPRNHFRCQVQFYGLSENDEWTQDRAKPVTQIVSAEAWGRADCGITSASYHQGVLSATILYEILLGKATLYAVLVSALVLMAMVKRKDSRGRAKRSGSGATNFSLLKQAGDVEENPGPTSMALPVTALLLPLALLLHAARPEIVLTQSPDFQSVTPKEKVTITCRASESVDTFGISFMNWFQQKPDQSPKLLIHAASNQGSGVPSRFSGSGSGTDFTLTINSLEAEDAATYYCQQSKEVPFTFGGGTKVEIKGGGGSGGGGSGGGGSEVQLVESGGGLVQPGGSLRLSCAASGFTFSSSWMNWVRQAPGKGLEWVGRIYPGDGDTNYNGKFKGRFTISRDDSKNSLYLQMNSLKTEDTAVYYCARSGFITTVLDFDYWGQGTLVTVSSTREQKLISEEDLGSGTPFPSLAPPIMLLVDGKQQMVVVCLVLDVAPPGLDSPIWFSAGNGSALDAFTYGPSPATDGTWTNLAHLSLPSEELASWEPLVCHTGPGAEGHSRSTQPMHLSGEASTARTCPQEPLRGTPGGALWLGVLRLLLFKLLLFDLLLTCSCLCDPAGPLPSPATTTRLRALGSHRLHPATETGGREATSSPRPQPRDRRWGDTPPGRKPGSPVRAKRSGSGVKQTLNFDLLKLAGDVESNPGPSRSRGHMTEYKPTVRLATRDDVPRAVRTLAAAFADYPATRHTVDPDRHIERVTELQELFLTRVGLDIGKVWVADDGAAVAVWTTPESVEAGAVFAEIGPRMAELSGSRLAAQQQMEGLLAPHRPKEPAWFLATVGVSPDHQGKGLGSAVVLPGVEAAERAGVPAFLETSAPRNLPFYERLGFTVTADVEVPEGPRTWCMTRKPGA | (+/−) | RAJI (+), NALM6 | 
2 | 041416-U01 (protein, Polynucleotide encoding a Synthetic Immune Receptor (SIR)) MALPVTALLLPLALLLHAARPDIVLTQSPATLSLSPGDRATISCRASESVTILGSHLIYWYQQKPGQPPRLLIQLASNVQTGVPARFSGSGSRTDFTLTISSVEPEDFAVYYCLQSRTIPRTFGQGTKLEIKRLEGKPIPNPLLGLDSTGSGEDLKNVFPPEVAVFEPSKAEIAHTQKATLVCLATGFYPDHVELSWWVNGKEVHSGVCTDPQPLKEQPALNDSRYCLSSRLRVSATFWQNPRNHFRCQVQFYGLSENDEWTQDRAKPVTQIVSAEAWGRADCGITSASYHQGVLSATILYEILLGKATLYAVLVSALVLMAMVKRKDSRGRAKRSGSGATNFSLLKQAGDVEENPGPTSMDWIWRILFLVGAATGAHSFEQVQLVQSGPEVKKPGESVKISCKASGYTFRHYSMNWVKQAPGQGLKWMGRINTESGVPIYADDFKGRFSFTVDTSASTAYLEISSLTSEDTAVYFCSNDYLYSLDFWGQGTTLTVSSTREQKLISEEDGSGTPFPSLAPPIMLLVDGKQQMVVVCLVLDVAPPGLDSPIWFSAGNGSALDAFTYGPSPATDGTWTNLAHLSLPSEELASWEPLVCHTGPGAEGHSRSTQPMHLSGEASTARTCPQEPLRGTPGGALWLGVLRLLLFKLLLFDLLLTCSCLCDPAGPLPSPATTTRLRALGSHRLHPATETGGREATSSPRPQPRDRRWGDTPPGRKPGSPVRAKRSGSGVKQTLNFDLLKLAGDVESNPGPSRGHMTEYKPTVRLATRDDVPRAVRTLAAAFADYPATRHTVDPDRHIERVTELQELFLTRVGLDIGKVWVADDGAAVAVWTTPESVEAGAVFAEIGPRMAELSGSRLAAQQQMEGLLAPHRPKEPAWFLATVGVSPDHQGKGLGSAVVLPGVEAAERAGVPAFLETSAPRNLPFYERLGFTVTADVEVPEGPRTWCMTRKPGA |  |  | NFAT-GFP ASSAY Positive Cell lines: L363 (SIR-expressing Jurkat-NFAT-GFP cells cocultured with L363): L363 (2+), U266; NFAT-GFP ASSAY Positive Cell lines: U266 (SIR-expressing Jurkat-NFAT-GFP cells cocultured with U266): (2+)
3 | 011317-B06 (protein) MALPVTALLLPLALLLHAARPLEQKLISEEDLGSGDRPDPAVYQLRDSKSSDKSVCLFTDFDSQTNVSQSKDSDVYITDKCVLDMRSMDFKSNSAVAWSNKSDFACANAFNNSIIPEDTFFPSPESSCDVKLVEKSFETDTNLNFQNLSVIGFRILLLKVAGFNLLMTLRLWSSSSRAKRSGSGVKQTLNFDLLKLAGDVESNPGPTSMALPVTALLLPLALLLHAARPDIVMTQSPATLSLSPGERATLSCRSSKSLQNVNGNTYLYWFQQKPGQSPQLLIYRMSNLNSGVPDRFSGSGSGTEFTLTISSLEPEDFAVYYCMQHLEYPITFGAGTKLEIKGGGGSGGGGSGGGGSEVQLVESGGGLVKPGGSLKLSCAASGYTFTSYVMHWVRQAPGKGLEWIGYINPYNDGTKYNEKFQGRVTISSDKSISTAYMELSSLRSEDTAMYYCARGTYYYGTRVFDYWGQGTLVTVSSTRGKPIPNPLLGLDSTGSGEDLKNVFPPEVAVFEPSEAEISHTQKATLVCLATGFYPDHVELSWWVNGKEVHSGVCTDPQPLKEQPALNDSRYCLSSRLRVSATFWQNPRNHFRCQVQFYGLSENDEWTQDRAKPVTQIVSAEAWGRADCGFTSESYQQGVLSATILYEILLGKATLYAVLVSALVLMAMVKRKDSRGRAKRSGSGATNFSLLKQAGDVEENPGPSRGHMTEYKPTVRLATRDDVPRAVRTLAAAFADYPATRHTVDPDRHIERVTELQELFLTRVGLDIGKVWVADDGAAVAVWTTPESVEAGAVFAEIGPRMAELSGSRLAAQQQMEGLLAPHRPKEPAWFLATVGVSPDHQGKGLGSAVVLPGVEAAERAGVPAFLETSAPRNLPFYERLGFTVTADVEVPEGPRTWCMTRKPGA | (2+) |  | 
4 | 022817-L08 (protein) MALPVTALLLPLALLLHAARPDIVMTQSPATLSLSPGERATLSCRSSKSLQNVNGNTYLYWFQQKPGQSPQLLIYRMSNLNSGVPDRFSGSGSGTEFTLTISSLEPEDFAVYYCMQHLEYPITFGAGTKLEIKLEEQKLISEEDLGSGEDLKNVFPPEVAVFEPSKAEIAHTQKATLVCLATGFYPDHVELSWWVNGKEVHSGVCTDPQPLKEQPALNDSRYCLSSRLRVSATFWQNPRNHFRCQVQFYGLSENDEWTQDRAKPVTQIVSAEAWGRADCGITSASYHQGVLSATILYEILLGKATLYAVLVSALVLMAMVKRKDSRGRAKRSGSGATNFSLLKQAGDVEENPGPTSMDWIWRILFLVGAATGAHSFEEVQLVESGGGLVKPGGSLKLSCAASGYTFTSYVMHWVRQAPGKGLEWIGYINPYNDGTKYNEKFQGRVTISSDKSISTAYMELSSLRSEDTAMYYCARGTYYYGTRVFDYWGQGTLVTVSSTREQKLISEEDLGSGIQNPDPAVYQLRDSKSSDKSVCLFTDFDSQTNVSQSKDSDVYITDKCVLDMRSMDFKSNSAVAWSNKSDFACANAFNNSIIPEDTFFPSSDVPCDVKLVEKSFETDTNLNFQNLSVIGFRILLLKVAGFNLLMTLRLWSSRAKRSGSGVKQTLNFDLLKLAGDVESNPGPSRGHMTEYKPTVRLATRDDVPRAVRTLAAAFADYPATRHTVDPDRHIERVTELQELFLTRVGLDIGKVWVADDGAAVAVWTTPESVEAGAVFAEIGPRMAELSGSRLAAQQQMEGLLAPHRPKEPAWFLATVGVSPDHQGKGLGSAVVLPGVEAAERAGVPAFLETSAPRNLPFYERLGFTVTADVEVPEGPRTWCMTRKPGA | (2+) |  | 
5 | 012417-I04 (protein) MALPVTALLLPLALLLHAARPLEGKPIPNPLLGLDSTGSGEDLKNVFPPEVAVFEPSKAEIAHTQKATLVCLATGFYPDHVELSWWVNGKEVHSGVCTDPQPLKEQPALNDSRYCLSSRLRVSATFWQNPRNHFRCQVQFYGLSENDEWTQDRAKPVTQIVSAEAWGRADCGITSASYHQGVLSATILYEILLGKATLYAVLVSALVLMAMVKRKDSRGRAKRSGSGATNFSLLKQAGDVEENPGPTSMALPVTALLLPLALLLHAARPDILLTQSPATLSLSPGERATLSCRASQSVDYDGDSYLNWYQQKPGQPPKLLIYDASNLVSGIPPRFSGSGSGTDFTLTISRLEPEDFAVYHCQQSTEDPWTFGGGTKLEIKGGGGSGGGGSGGGGSQVQLVESGGGLVEPGGSLRLSCMSGYAFSSYWMNWVRQMPGKGLEWMGQIWPGDGDTNYNPSLKSRVTITADESTSTAYMELSSLKAEDTAVYFCARRETTTVGRYYYAMDYWGQGTLVTVSSTREQKLISEEDGSGIQNPDPAVYQLRDSKSSDKSVCLFTDFDSQTNVSQSKDSDVYITDKCVLDMRSMDFKSNSAVAWSNKSDFACANAFNNSIIPEDTFFPSSDVPCDVKLVEKSFETDTNLNFQNLSVIGFRILLLKVAGFNLLMTLRLWSSRAKRSGSGVKQTLNFDLLKLAGDVESNPGPSRGHMTEYKPTVRLATRDDVPRAVRTLAAAFADYPATRHTVDPDRHIERVTELQELFLTRVGLDIGKVWVADDGAAVAVWTTPESVEAGAVFAEIGPRMAELSGSRLAAQQQMEGLLAPHRPKEPAWFLATVGVSPDHQGKGLGSAVVLPGVEAAERAGVPAFLETSAPRNLPFYERLGFTVTADVEVPEGPRTWCMTRKPGA |  | RAJI (+/−) | 
6 | 012617-O05 (protein) MALPVTALLLPLALLLHAARPLEGKPIPNPLLGLDSTGSGEDLKNVFPPEVAVFEPSKAEIAHTQKATLVCLATGFYPDHVELSWWVNGKEVHSGVCTDPQPLKEQPALNDSRYCLSSRLRVSATFWQNPRNHFRCQVQFYGLSENDEWTQDRAKPVTQIVSAEAWGRADCGITSASYHQGVLSATILYEILLGKATLYAVLVSALVLMAMVKRKDSRGRAKRSGSGATNFSLLKQAGDVEENPGPTSMALPVTALLLPLALLLHAARPDILLTQSPATLSLSPGERATLSCKASQNVGTNVAWYQQKPGQPPKLLIYSATYRNSGIPARFSGSGSGTEFTLTITNVQSKDLADYFYFCQYNRYPYTSGGGTKLEIKRGGGGSGGGGSGGGGSQVQLVESGGGLVEPGGSLRLSCMSGYAFSSYWMNWVRQMPGKGLEWMGQIYPGDGDTNYNGKFKGRVTITADESTSTAYMELSSLKAEDTAVYFCARKTISSVVDFYFDNWGQGTLVTVSSTREQKLISEEDGSGIQNPDPAVYQLRDSKSSDKSVCLFTDFDSQTNVSQSKDSDVYITDKCVLDMRSMDFKSNSAVAWSNKSDFACANAFNNSIIPEDTFFPSSDVPCDVKLVEKSFETDTNLNFQNLSVIGFRILLLKVAGFNLLMTLRLWSSRAKRSGSGVKQTLNFDLLKLAGDVESNPGPSRGHMTEYKPTVRLATRDDVPRAVRTLAAAFADYPATRHTVDPDRHIERVTELQELFLTRVGLDIGKVWVADDGAAVAVWTTPESVEAGAVFAEIGPRMAELSGSRLAAQQQMEGLLAPHRPKEPAWFLATVGVSPDHQGKGLGSAVVLPGVEAAERAGVPAFLETSAPRNLPFYERLGFTVTADVEVPEGPRTWCMTRKPGA |  | RAJI (+/−) | 
